Reference: US20240024504A1, “SITE-SELECTIVE LYSINE ACETYLATION OF HUMAN IMMUNOGLOBULIN G AND IgG-RELATED PRODUCTS FOR IMMUNOTHERAPY” (The Chinese University of Hong Kong, priority 2022, published 2024)

Target: Atezolizumab
Experiment: microscale thermophoresis instrument, ligand-induced fluorescence change; f-F0 held at 10 nM, the concentration axis is that of atezolizumab

Substance: peptide f-F0 (FITC-labeled parental Fc-III peptide F0, disulfide bond replaced by a thioether bond)
- EC50 (read off the curve): 20 nM
